Results published in paper PMC9210283, “DNA cytosine methylation at the lexA promoter of Escherichia coli is stationary phase specific”.

Columns and labels:
LexA [1] = biological target: T1, LexA (Escherichia coli, UniProt P0A7C2 1-202); test: EMSA; concentration as LexA dimer; Hill slope 1.1; 10 mM MgCl2; EMSA: 70 mM Tris-HCl pH 7.5, 2 mM PIPES, 180 mM NaCl, 10 mM MgCl2, 1 ug/ml salmon sperm DNA, 100 ug/ml BSA, 5% glycerol, 0.006% bromophenol blue, 0.1 nM probe; conditions: protein: recombinant; chain copies: 2; label: 32P (5' on strand 1); blunt
T1 sequence (P0A7C2 whole entry): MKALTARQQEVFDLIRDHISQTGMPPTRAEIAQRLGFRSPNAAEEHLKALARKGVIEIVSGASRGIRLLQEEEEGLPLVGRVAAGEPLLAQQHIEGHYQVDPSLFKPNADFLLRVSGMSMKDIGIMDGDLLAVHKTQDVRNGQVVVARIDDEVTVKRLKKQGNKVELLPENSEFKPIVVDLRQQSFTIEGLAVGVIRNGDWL

LexA [2] = biological target: T1, LexA; test: EMSA; concentration as LexA dimer; Hill slope 1.2; 10 mM MgCl2; EMSA: 70 mM Tris-HCl pH 7.5, 2 mM PIPES, 180 mM NaCl, 10 mM MgCl2, 1 ug/ml salmon sperm DNA, 100 ug/ml BSA, 5% glycerol, 0.006% bromophenol blue, 0.1 nM probe; conditions: protein: recombinant; chain copies: 2; label: 32P (5' on strand 1); blunt

B1: lexAop 5mC/5mC (mC16 F / mC3 R) (dsDNA)
DNA 1: AATGCCTGCGGAAACTGTATATACACCCAGGGTCAATTCTGGCT
DNA 2: AGCCAGAATTGACCCTGGGTGTATATACAGTTTCCGCAGGCATT
modifications: 5-methyl-dC at position 28 of strand 1 and position 15 of strand 2
Question: With B1 as the binder, how does the Kd (LexA [1]) read?
Answer: The Kd was 14 nM.

B2: lexAop C/C (nonmethylated) (dsDNA)
DNA 1: B1 DNA 1
DNA 2: B1 DNA 2
Question: How did the Kd (LexA [2]) turn out when B2 was run?
Answer: Its Kd is 15 nM.
